Assays:
MxPPO [1] = test: Herbicide tolerance test of MxPPO wild type and variants in PPO-deficient E. coli BT3(ΔPPO), growth on herbicide-containing LB agar; format: cell-based, Myxococcus xanthus; details: relative to MxPPO WT, light
Description: Then, the extent of tolerance was evaluated.

MxPPO [2] = test: PPO enzyme activity of purified MBP-fused MxPPO wild type and variants; format: biochemical, Myxococcus xanthus; details: PPO enzyme activity of purified MxPPO protein, relative to wild type
Description: Thus, PPO proteins of wild type and variants were expressed as fused to MBP and were used for experiments.
The following process for purification of PPO protein was performed in a 4° C. cold room. […] The column was washed with 3 column volumes of buffer and the presence of protein in the washing solution was examined. When the protein was no longer detected, the washing procedure was terminated. Then, the MBP-PPO protein was eluted with approximately 2 column volumes of buffer containing 20 mM maltose. The protein concentration of each eluent was determined and the elution was stopped when the protein was no longer detected. Ten microliter of each fraction was investigated for protein quantification and SDS-PAGE analysis. The highly pure fractions of PPO protein variants were used for the enzyme assay.
Since protoporphyrinogen IX, a substrate of PPO protein, was not commercially available, it was chemically synthesized in the laboratory. Overall process was performed in dark under nitrogen stream. […] of protoporphyrin IX was dissolved in 20 ml of 20% (v/v) EtOH, and stirred under dark condition for 30 minutes. The obtained protoporphyrin IX solution was put into a 15 ml screw tube in an amount of 800 μl, and flushed with nitrogen gas for 5 minutes. To this, 1.5 g of sodium amalgam was added and vigorously shaken for 2 minutes. The lid was opened to exhaust hydrogen gas in the tube. Thereafter, the lid was closed and incubated for 3 minutes. The protoporphyrinogen IX solution was filtered using syringe and cellulose membrane filter. To 600 μl of the obtained protoporphyrinogen IX solution, approximately 300 μl of 2M MOPS [3-(N-morpholino) propanesulfonic acid] was added to adjust pH to 8.0. To determine the enzyme activity of PPO protein, a reaction mixture was prepared with the following composition (based on 10 ml): 50 mM Tris-Cl (pH 8.0); 50 mM NaCl; 0.04% (v/v) Tween 20; 40 mM glucose (0.072 g); 5 units glucose oxidase (16.6 mg); and 10 units catalase (1 μl).
Hundred and eighty microliters of a reaction mixture […] were placed in 96 well plates and 20 μl of purified PPO proteins were added. After 50 μl of the mineral oil was layered, the reaction was initiated by adding the substrate, protoporphyrinogen IX solution, to a final concentration of 50 μM. The reaction proceeded at room temperature for 30 min and the fluorescence of protoporphyrin IX was measured using Microplate reader (Sense, Hidex) (excitation: 405 nm; emission: 633 nm). To calculate the PPO enzyme activity, the protoporphyrinogen IX solution was kept open in the air overnight to oxidize the solution. To this, 2.7 N HCl was added, and the absorbance at 408 nm was measured. A standard curve was generated using standard protoporphyrin IX, and PPO activity was measured by calibration of protoporphyrin IX using the standard curve of protoporphyrin IX.
Activities of variants were presented relatively compared to that of wild type.

Row | Molecule | Herbicide tolerance, flumioxazin (MxPPO [1]; up to 100 μM (FIG. 13)) | Herbicide tolerance, saflufenacil (MxPPO [1]; up to 200 μM (FIG. 13)) | Activity (%) (MxPPO [2])
1 | A170L: MxPPO (SEQ ID NO: 3) variant (protein, Synthetic (Protoporphyrinogen IX oxidase (MxPPO) of Myxococcus xanthus)) MHHMPRTTGMNVAVVGGGISGLAVAHHLRSRGTDAVLLESSARLGGAVGTHALAGYLVEQGPNSFLDREPATRALAAALNLEGRIRAADPAAKRRYVYTRGRLRSVPASPPAFLASDILPLGARLRVAGELFSRRAPEGVDESLAAFGRRHLGHRATQVLLDAVQTGIYLGDVEQLSVAATFPMLVKMEREHRSLILGAIRAQKAQRQAALPAGTAPKLSGALSTFDGGLQVLIDALAASLGDAAHVGARVEGLAREDGGWRLIIEEHGRRAELSVAQVVLAAPAHATAKLLRPLDDALAALVAGIAYAPIAVVHLGFDAGTLPAPDGFGFLVPAEEQRRMLGAIHASTTFPFRAEGGRVLYSCMVGGARQPGLVEQDEDALAALAREELKALAGVTARPSFTRVFRWPLGIPQYNLGHLERVAAIDAALQRLPGLHLIGNAYKGVGLNDCIRNAAQLADALVAGNTSHAP | ++ (10-99 fold higher tolerance) | ++ (10-99 fold higher tolerance) | 40
2 | I345T: MxPPO (SEQ ID NO: 3) variant (protein, Synthetic (Protoporphyrinogen IX oxidase (MxPPO) of Myxococcus xanthus)) MHHMPRTTGMNVAVVGGGISGLAVAHHLRSRGTDAVLLESSARLGGAVGTHALAGYLVEQGPNSFLDREPATRALAAALNLEGRIRAADPAAKRRYVYTRGRLRSVPASPPAFLASDILPLGARLRVAGELFSRRAPEGVDESLAAFGRRHLGHRATQVLLDAVQTGIYAGDVEQLSVAATFPMLVKMEREHRSLILGAIRAQKAQRQAALPAGTAPKLSGALSTFDGGLQVLIDALAASLGDAAHVGARVEGLAREDGGWRLIIEEHGRRAELSVAQVVLAAPAHATAKLLRPLDDALAALVAGIAYAPIAVVHLGFDAGTLPAPDGFGFLVPAEEQRRMLGATHASTTFPFRAEGGRVLYSCMVGGARQPGLVEQDEDALAALAREELKALAGVTARPSFTRVFRWPLGIPQYNLGHLERVAAIDAALQRLPGLHLIGNAYKGVGLNDCIRNAAQLADALVAGNTSHAP |  |  | 33
3 | M365I: MxPPO (SEQ ID NO: 3) variant (protein, Synthetic (Protoporphyrinogen IX oxidase (MxPPO) of Myxococcus xanthus)) MHHMPRTTGMNVAVVGGGISGLAVAHHLRSRGTDAVLLESSARLGGAVGTHALAGYLVEQGPNSFLDREPATRALAAALNLEGRIRAADPAAKRRYVYTRGRLRSVPASPPAFLASDILPLGARLRVAGELFSRRAPEGVDESLAAFGRRHLGHRATQVLLDAVQTGIYAGDVEQLSVAATFPMLVKMEREHRSLILGAIRAQKAQRQAALPAGTAPKLSGALSTFDGGLQVLIDALAASLGDAAHVGARVEGLAREDGGWRLIIEEHGRRAELSVAQVVLAAPAHATAKLLRPLDDALAALVAGIAYAPIAVVHLGFDAGTLPAPDGFGFLVPAEEQRRMLGAIHASTTFPFRAEGGRVLYSCIVGGARQPGLVEQDEDALAALAREELKALAGVTARPSFTRVFRWPLGIPQYNLGHLERVAAIDAALQRLPGLHLIGNAYKGVGLNDCIRNAAQLADALVAGNTSHAP |  |  | 82
4 | M365V: MxPPO (SEQ ID NO: 3) variant (protein, Synthetic (Protoporphyrinogen IX oxidase (MxPPO) of Myxococcus xanthus)) MHHMPRTTGMNVAVVGGGISGLAVAHHLRSRGTDAVLLESSARLGGAVGTHALAGYLVEQGPNSFLDREPATRALAAALNLEGRIRAADPAAKRRYVYTRGRLRSVPASPPAFLASDILPLGARLRVAGELFSRRAPEGVDESLAAFGRRHLGHRATQVLLDAVQTGIYAGDVEQLSVAATFPMLVKMEREHRSLILGAIRAQKAQRQAALPAGTAPKLSGALSTFDGGLQVLIDALAASLGDAAHVGARVEGLAREDGGWRLIIEEHGRRAELSVAQVVLAAPAHATAKLLRPLDDALAALVAGIAYAPIAVVHLGFDAGTLPAPDGFGFLVPAEEQRRMLGAIHASTTFPFRAEGGRVLYSCVVGGARQPGLVEQDEDALAALAREELKALAGVTARPSFTRVFRWPLGIPQYNLGHLERVAAIDAALQRLPGLHLIGNAYKGVGLNDCIRNAAQLADALVAGNTSHAP |  |  | 77
5 | M365T: MxPPO (SEQ ID NO: 3) variant (protein, Synthetic (Protoporphyrinogen IX oxidase (MxPPO) of Myxococcus xanthus)) MHHMPRTTGMNVAVVGGGISGLAVAHHLRSRGTDAVLLESSARLGGAVGTHALAGYLVEQGPNSFLDREPATRALAAALNLEGRIRAADPAAKRRYVYTRGRLRSVPASPPAFLASDILPLGARLRVAGELFSRRAPEGVDESLAAFGRRHLGHRATQVLLDAVQTGIYAGDVEQLSVAATFPMLVKMEREHRSLILGAIRAQKAQRQAALPAGTAPKLSGALSTFDGGLQVLIDALAASLGDAAHVGARVEGLAREDGGWRLIIEEHGRRAELSVAQVVLAAPAHATAKLLRPLDDALAALVAGIAYAPIAVVHLGFDAGTLPAPDGFGFLVPAEEQRRMLGAIHASTTFPFRAEGGRVLYSCTVGGARQPGLVEQDEDALAALAREELKALAGVTARPSFTRVFRWPLGIPQYNLGHLERVAAIDAALQRLPGLHLIGNAYKGVGLNDCIRNAAQLADALVAGNTSHAP |  |  | 52
6 | R95A + M365I: MxPPO (SEQ ID NO: 3) variant (protein, Synthetic (Protoporphyrinogen IX oxidase (MxPPO) of Myxococcus xanthus)) MHHMPRTTGMNVAVVGGGISGLAVAHHLRSRGTDAVLLESSARLGGAVGTHALAGYLVEQGPNSFLDREPATRALAAALNLEGRIRAADPAAKRAYVYTRGRLRSVPASPPAFLASDILPLGARLRVAGELFSRRAPEGVDESLAAFGRRHLGHRATQVLLDAVQTGIYAGDVEQLSVAATFPMLVKMEREHRSLILGAIRAQKAQRQAALPAGTAPKLSGALSTFDGGLQVLIDALAASLGDAAHVGARVEGLAREDGGWRLIIEEHGRRAELSVAQVVLAAPAHATAKLLRPLDDALAALVAGIAYAPIAVVHLGFDAGTLPAPDGFGFLVPAEEQRRMLGAIHASTTFPFRAEGGRVLYSCIVGGARQPGLVEQDEDALAALAREELKALAGVTARPSFTRVFRWPLGIPQYNLGHLERVAAIDAALQRLPGLHLIGNAYKGVGLNDCIRNAAQLADALVAGNTSHAP |  |  | 42
7 | R95A + M365V: MxPPO (SEQ ID NO: 3) variant (protein, Synthetic (Protoporphyrinogen IX oxidase (MxPPO) of Myxococcus xanthus)) MHHMPRTTGMNVAVVGGGISGLAVAHHLRSRGTDAVLLESSARLGGAVGTHALAGYLVEQGPNSFLDREPATRALAAALNLEGRIRAADPAAKRAYVYTRGRLRSVPASPPAFLASDILPLGARLRVAGELFSRRAPEGVDESLAAFGRRHLGHRATQVLLDAVQTGIYAGDVEQLSVAATFPMLVKMEREHRSLILGAIRAQKAQRQAALPAGTAPKLSGALSTFDGGLQVLIDALAASLGDAAHVGARVEGLAREDGGWRLIIEEHGRRAELSVAQVVLAAPAHATAKLLRPLDDALAALVAGIAYAPIAVVHLGFDAGTLPAPDGFGFLVPAEEQRRMLGAIHASTTFPFRAEGGRVLYSCVVGGARQPGLVEQDEDALAALAREELKALAGVTARPSFTRVFRWPLGIPQYNLGHLERVAAIDAALQRLPGLHLIGNAYKGVGLNDCIRNAAQLADALVAGNTSHAP |  |  | 40
8 | R95A: MxPPO (SEQ ID NO: 3) variant (protein, Synthetic (Protoporphyrinogen IX oxidase (MxPPO) of Myxococcus xanthus)) MHHMPRTTGMNVAVVGGGISGLAVAHHLRSRGTDAVLLESSARLGGAVGTHALAGYLVEQGPNSFLDREPATRALAAALNLEGRIRAADPAAKRAYVYTRGRLRSVPASPPAFLASDILPLGARLRVAGELFSRRAPEGVDESLAAFGRRHLGHRATQVLLDAVQTGIYAGDVEQLSVAATFPMLVKMEREHRSLILGAIRAQKAQRQAALPAGTAPKLSGALSTFDGGLQVLIDALAASLGDAAHVGARVEGLAREDGGWRLIIEEHGRRAELSVAQVVLAAPAHATAKLLRPLDDALAALVAGIAYAPIAVVHLGFDAGTLPAPDGFGFLVPAEEQRRMLGAIHASTTFPFRAEGGRVLYSCMVGGARQPGLVEQDEDALAALAREELKALAGVTARPSFTRVFRWPLGIPQYNLGHLERVAAIDAALQRLPGLHLIGNAYKGVGLNDCIRNAAQLADALVAGNTSHAP |  |  | 43
